Experimental data from the nanobody polyreactivity screen of Harvey et al. (2022).

Test: yeast display, Sf9 membrane polyspecificity reagent, FACS + sequencing; frameworks hold sequencing errors
How it was run: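 Synthetic nanobody libraries on Saccharomyces cerevisiae BJ5465 were galactose-induced for 36–48 hours, stained 1 hour at 4 °C with 10% biotinylated, detergent-solubilized Sf9 membrane reagent and enriched on streptavidin microbeads. FACS then separated cells into low and high (top ~1%) gates by anti-HA (expression) and streptavidin (reagent binding) fluorescence. Genes were colony-PCR amplified, MiSeq 2 × 250 sequenced and CDR-length filtered. A clone's polyreactivity label is that of its gate of origin.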

Sequence	polyreactivity (PSR sort gate)
QVQLVESGGGLVQAARSHRVSCAASGSIFWGNVKGWYRQAPGNESELVAAINSGGSTYYADSVKGRFTISRDNAKNTVYLQMNSLIPEDTAVYYCAAAINRYRGTFNYWGQGTQVSVSS	high polyreactivity
QVQLVDSGGGLVQAGGSLRLTCDASGSTFYVNFMGWYRQAPGKERELDALIDWRGGSTYYADSVKGRFTISRDNAKNTVYLQMNSLKPEDTAVYYCKKDAQFYYKLPYYKERDWGQGTQVTVSS	low polyreactivity
QVQLVESGGGLVQAGGSLRLSCAASGFTFRSNAMGWYRQAPGKERELVAAISYSGDSTYYADSVKGRFTISRDNAKNTVYLQMNSLKPEDTAVYYCNAVGSGYRSWYDYWGQGTQVTVSS	high polyreactivity
QVQLVESGGGLLQAGGSLRLSCAASGSTFEYNAMGWYRQAPGKERELVASSTNYADSVKGRFTISRDNAKNTVYLQMNSLKPEDTAVYYCAREQGVNRNHDNWGQGTQVTVSS	low polyreactivity
QVQLVESGGGLVQAGGSLRLSCAASGRILSYYAMGWYRQAPGKERELVAAISWGGGRTFYADSVKGRFTISRDNAKNTVYLQMNSLQPEDTAVYYCNADSYRWGAHDYWGQGTQVTVSS	high polyreactivity
QVQLVESGGGLVQAGGSLRLSCAASGFIFNYNAMGWYRQAPGKERELVAAIRTSSGSTYYADSVKGRFTISRDNAKNTVYLQMNSLKPEDTAVYYCGKTRYSTYSPIYYYWGQGTQVTVSS	high polyreactivity
QVQLVESGGGLVQAVGSLRLSCAASGRILYWYAMGWYRQAPGKERELVAAINHGDTSTYYADSVKGRFTISRDNAKNTVYLQMNSLIPEDTAVYYCNVRSYVYSRWYQSTWGYYYWGQGTQVTVSS	high polyreactivity
QVQLVESVGGLVQAGGSLRLSSAASGFTFVPYAMGWYRQAPGKERETNADSVKGRFTISRDNAKNTVYLQMNSLKPEDTAVYYCAADLGRGIYDYWGQGTQVTVSS	low polyreactivity
QFQLLESGGGLVQAGGSLRRSCAASGFTFDYYAMGWSRQAPGKERELVAVNNWSGGDTYYADSVKGRFTISRDNAKNTVYLQMNSLKPEDTAVYYCARVERMRYVGKYYPIRDYWGQGNQVTVSS	high polyreactivity
QVQLVESGGGLVHAGGSLRLSCAASGNIFKRNAMGWYRQAHGKERELVAAISGSGVRTYYADSVKGRFTISRDNAKNSVYLQMNSLKPEDTAVYYCNAEIRYSAWNWLSYEYWGQGTQVTVSS	high polyreactivity
QVQLVESGRGLVQAGGSLRLSCAASGSIFIANPMGWYRQAPGKQREFVADITLNGGSTYYADSVKGRFTISRDNAKNTVYLEMNRLNPEDTAVYYCAADWVWVAPQYWIVEYDYWGQGTQVTVSS	low polyreactivity
QVQLVESGGGLVQAGGSLRLSCAASGSIFQFNGMGWYRQAPGKERELVASINWSGGSTNYADSVMGRFTISRDNAKNTVYLQMNSLKAEDTAVYYCAVGHRIYRSRYNYWGQGTQVTVSS	low polyreactivity
QVQLVESGGGLVQAGGSLRLICAASGSIFYRYAMGWYRQAPGKERELVAAISSNGVSTYYADSVKGRFTISRDNAKNTVYLQMNSLKPEDTAVYYCARDVYASPRLYTSRYNYWGQGTQVTVSS	low polyreactivity
QVQLVESGGGLVQAGGSLRLSCAASGSIFRRYAMGWYRQAPGKERELVAAISFSGGSTYYADSVKGRFTISRDNAKNTVYLQMNSLKPEDTAVYYCAARSYAYSGDYWGQGTQVNVSS	high polyreactivity
QVQLVESGGGLVQAGGSLRLSCAASGSIFGANTMGWYRQAPGKERELVAAISSGGNTYYADSVKGRFTISRDNAKNTVYLQMNSLKPEDTAVYYCNAQTRYRYQYGYLGGTGYNYWGQGTQVTVSS	low polyreactivity
QVQLVESGGGLVQAGGSLRLSCAASGSIFGRNAMGWYRQAPGKERELVAAISGRASSTFYADSVKGRFTISRDNAKNTVYLQMNSLKPEDTAVYYCAARNSYGGPTYEHYYWGQGTQVTVSS	high polyreactivity
QVQLVESGGVLVQAGGSLRLSCAASGRTFYYYAMGWYRQAPGKEREFVAVISGSGANTFYADSVKGRFTISRDNAKNTVYLQMNSLKPEDTAVYYCAARSWEGYGYWGQGTQVTVSS	high polyreactivity
QVQLVESGGGLVQAGGSLRLSCAASGRTFYQYAMGWYRQARGKERELVAAISRRGGSTYYADSVKGRFTISRDNAKNTVYLQMNSLKPEDTAVYYCAARVRGKYDYWGQGTQVTVSS	high polyreactivity
QVQLVESGGGLVQAGGSLRLSCAPSGFTFRIYAMGWYRQAPGKERELVAAISWAGGSTFYADSVKGRFTISRDNAKNTVYLQLNSLKPEDTAVYYCAADTAFNYDYWGQGTQVTVSS	low polyreactivity
QVQLVESGGGLVQAGGSLRLSCAASGSIFGTYAMGGYRQAPGKERELVAAITGNGGRTYYADSVKGRFTISRDNAKNTVYLQMNSLKPEDTAVYYCAKATSRRGFYYWGQGTQVTVSS	high polyreactivity
QVQLVESGGGLVQAGGSLRLSCAASGRIFTNNAMGWYRQAPGKERELVAAITRGGTTNYADSVKGRFTISRDNAKNTVYLHMNSLKPEDTAVYFCARAGAHPWWSRSTMYYWGQGTQVTVSS	low polyreactivity
QVQLVESGGGLVQAGGSLRLSCAASGFIFSQYAMGWYRQAPGKERELVAAISYRGGSTYYADSVKGRFTISRDNAKNTVYLQMNSLKPEDTAVYYCNAGRRSQTYLGTCDYWGQGTQVTVSS	high polyreactivity

Sequence	polyreactivity (PSR sort gate)
QVQLVESGGGLVQAGGSLRLSCAASGSTFYDYAMGWYRQAPGTEREFVAAISGSAGSTYYADSVKGRFTISRDNAKNTVYLQMNSLKPEDTAVYYCATDYGWEDYNYWGQGTQVTVSS	low polyreactivity
QVQIVETGGGLVQAGGSLRLSCAASGRIFFRNPMGWYRPAPRKEREFVAAINWSGGSTYYADSVKGRFTISRDNAKNTVYLQMNSLKPEDTAVYYCAARGSRGGRRGATASMDYWGQGTQVTVSS	high polyreactivity
QVQLVESGGGLVQAGVSLRLSCAASGGTIVGNAMGWYRQAPGKERELVAAMSTNSGSTYYADSVKGRFTISRDNAKNTVYLQMNSLKPEDTAVYYFATRNSSKRRGYYYWGQGTQVTVSS	high polyreactivity
QVQLVESGGGLVQAGGSLRLSCAASGSIFNYYAMGWYRQAPGKEREFVAGITTSGGSTYYADSVKGRFTISRDNAKNTVCLQMNSLKPEDTAVYYCAAYDYISSTYFLDDYWGQGTQVTVSS	low polyreactivity
QVQLVESVGGLVQAGGSLRISCAASGSIFAVYAMGWYRQAPGKESELVAAITSSGGRTYYADSVKGRFTISRDNAKNTVYFQMNSLKPEDTAVYYSATRGDTRWGLDYWGQATQVTVSS	high polyreactivity
QLQLVESGGGLDQAGGSLRLSCAASGSIFPGYAMGWYRQAPGKESELVATITWSGGSTYYADSVKGRFTISRDNAKNTVYLQMNSLKPEDTAVYYCNADSNWYYQWNYYGLYDYWGQGTQVTVSS	low polyreactivity
QVQIVESGGGLVQAGVSLRLSCAASGSIYYEYTMGWYRQAPGKERELVAVITSCGTTNYADSVKGRFTISRDNAKNTVFLQMNSLKPEDTAVYYCAAKRRTGGNGYWGQGTQVTVSS	high polyreactivity
QVQLVESGGGLVQAGGSLRLSCAASGSTFSDYAMGWYRPAPGKERELVAAISSDGSTYYADSVKGRFTISRDNANNTVYLQMNILKPEDTAVYYCAKDVILVWPYATGRDYCGQGTQVTVSS	low polyreactivity
QVQLVESGGGLVQAGGSLRLSCAASGNIFKGYAMGWYRQAPGKERELVAAISKSGGSTYYADSVKGRFTISRDNAKNTVYLQMNSLKPEDTAVYYCAARSGGSGGTYGYWGQGTQVTVSS	high polyreactivity
QVQLVESGGGLVQAGGSLRLSCAASGSTFYLNAMGWYRQEPGKERELVAAISSGGRTYYADSVKGRFTISRDNAKNTVYFQKNSLKPEDTAVYYCAATRLYWKIFYGDGDYWGQGTQVTVSS	high polyreactivity
QVHLVESGGGLVQAGGSLRLSCAASGRIFYANARGWYRQAPGKERELVAAISQSGGSTFYADSVKGRFTISRDYAKNTVYLQMNSLKPEDTAVYYCATDYYGPVYDLDYDYWGQGTQVTVSS	low polyreactivity
QVQLVESGGGLVQARGSLRLSCAASGRIFSPYAMGWNRQAPWKERELVASITSGGTTNYADSVKGRFTISRDNAKNTVYLQMNSLKTEDTAVYYCATTYSYDDKFTSTLVDPDYGYWGQGTQVTVSS	low polyreactivity
QVQLVESGGGLVQAGGSLRLSSAASGSTFVNYVMGWYRQAPGKERELVAAISRRGTSTSYADSVKGRFTISRDNAKNTVYLQMNSLKPVDTAVYYCITLRQLGRPFYYWGQGTQVTVSS	high polyreactivity
QVQLVESGGGLVQAGGSLRLSCAASGRTFNYYAMGWYRQAPGKERELVAAISASGGRTYYADSVKGRFTISRDNAKNTVYLQMNSLKPAETAVYYCAKVSSFDAQFDYWGQGTQVTVSS	high polyreactivity
QVQLVESGGGLVQAGGSLRLSCAASGRIFADYAMGWYRQAPGKERELVAAIDWSDGSTKYADSVKGRFTISRDKAKNTVYLQMNSLKPEDTAVNYCAADYWPRDGLGWWYDYWGQGTQVTVSS	low polyreactivity
QVQLVQSGGGLVQAGGRLRLSCAASGRIFYYYTMGWYRQAPGKERELVAVISRSGDRTYYADSVKGRFTISRDIAKNTVYLQMNSLKPEDTAVYYCATRWSSARMDYCGQGTQVTVSS	high polyreactivity
QVQLVESGGGLVQAGGSLRLSCAASGSIFVYYAMRWYRQAPGKERELVAAITIGASTDYADSVKGRFTISRDNAKNTVYLQMNSLKPEDTAVYYCAADLYYGDYRTLPKPDEYDYWGQGTQVTVSS	low polyreactivity
QVQLVESGGGIVQAGGSLRLSCAASGLTFYGYTMGWYRQAPGKERELVAAISWSGGNTYYADSVKGRFTISRDNAKNTVYLQMNSLKPDDTAVYYCAAVYVYLGVYARYPIWGYYYWGQGTQVTVSS	low polyreactivity
QVQLVESVGGLVQAGGSLRLSCAASGSIFAVNAMGWYRKAPGTERELVAAITSSGVDTYYADSVKGRFTISRDNAKNTVYLQMNSLKPEDTAVYYCAADDQLNWYDYWGQGTQVTVSS	low polyreactivity
QVQLVESGGGLVQAGGSLRLSCAASGSISSFYAMGWYRQAPGKERELVAGITSGGSTNYADSVKGRFTISRDNAKNTVYLQKNSLKPEDTAVYYCAAVYQGAGTHFDVFVKEFDYWGQGTQVTVSS	low polyreactivity
QVQLVESGGGLVQAGGSLRLSCAASGFIFRYNAMGWYIQAPGKERELVASIDWSGGSTYYADSVKGGFTISRDNAKITVYLQMNSLKPEDTEVYYCAADTSYWYDYYIDYVGYYYWGQGTQVTVSS	high polyreactivity
